The term EC50 denotes the concentration giving half of the maximal effect. Higher therefore signals a less potent agent. As a reminder, the EC50 (read off the curve) is the concentration giving half of the maximal effect. For orientation: Kd means the constant that tells how readily two partners part at equilibrium. Read a low Kd as a tighter complex.

The results in this text go back to patent US20200165328A1 (Janssen / Centocor, published 2020).

In one assay the target is T1, rodent Aβ3pE-40 (rodent, UniProt P12023 674-711, pyroglutamate at the third residue of Aβ (N-terminal residue of this peptide)).
T1 construct: domain: Aβ3pE-40; Synthetic peptide
T1 peptide (looked up): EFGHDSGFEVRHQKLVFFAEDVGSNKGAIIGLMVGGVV
Description: sandwich ELISA, Aβ/pE3/1 coated, detection with JRF/cAβ40/28-HRPO. Here is the method: (§1) Concentrations up to 10,000 […] were tested.
(§2) Standards were dissolved in dimethylsulphoxide (DMSO) (Sigma) at 0.1 mg/mL and stored at −80° C. For use in ELISA, peptides were further diluted in 0.1% casein in PBS down to 1 μg/mL. […] Standards were incubated overnight at 4° C. together with HRPO-labeled secondary antibody (JRF/cAβ40/28-HRPO or JRF/cAβ42/26-HRPO). After overnight incubation, plates were washed and the assay was developed with TMB peroxide EIA substrate kit (Biorad) according to the manufacturer's recommendations.
(An ELISA detects its analyte on a solid surface through an enzyme-linked reagent.)

A further assay concerns the target T2, human Aβ3-42 peptide (human).
T2 construct: Synthetic peptide; also called N-truncated (Aβ3-42)
Description: sandwich ELISA, Aβ/pE3/1 coated, detection with JRF/cAβ42/26-HRPO. Here is the method:
as §1, §2

In the next assay the target is T3, human Aβ1-42 peptide (human).
T3 construct: Synthetic peptide; also called full-length human (Aβ1-42)
T3 sequence (peptide, as listed by the source): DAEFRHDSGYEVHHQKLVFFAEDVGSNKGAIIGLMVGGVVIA
The assay is described as above. Here is the method:
as §1, §2

Assay [1] deals with T4, human Aβ3pE-40 peptide (human, pyroglutamate at the third residue of Aβ (N-terminal residue of this peptide)).
T4 construct: Synthetic peptide (AnaSpec)
Briefly: sandwich ELISA, antibody coated, peptide standard, detection with JRF/cAβ40/28-HRPO. Here is the method: (§3) For the selected Aβ3pE monoclonal antibodies, the sensitivity for detection of Aβ3-40 (SEQ ID NO:24) (AnaSpec, Fremont, USA) and Aβ3pE-40 (SEQ ID NO:22) (AnaSpec, Fremont, USA) was evaluated in a sandwich assay using synthetic peptides as standards.
(§4) Standards of Aβ3-40 (SEQ ID NO:24) and Aβ3pE-40 (SEQ ID NO:22) peptides were dissolved in dimethylsulphoxide (DMSO) (Sigma) at 0.1 mg/mL and stored at −80° C. For use in ELISA, peptides were further diluted in 0.1% casein in PBS down to 1 μg/mL. […] Standards were incubated overnight at 4° C. together with HRPO-labeled secondary antibody. After overnight incubation, the plates were washed and the assay was developed with Quantablu substrate (Pierce, Rockford, Ill.) according to the manufacturer's recommendations.

Assay [2] concerns the target T5, human Aβ3-40 peptide (human).
T5 construct: Synthetic peptide (AnaSpec), N-truncated, no pyroglutamate
Described as above. Here is the method:
as §3, §4

Assay [3] addresses T4, human Aβ3pE-40 peptide. Description: sandwich ELISA: Aβ/pE3/1 coated as capture, peptide titrated, detection with JRF/cAβ40/28-HRPO, net OD 450 nm. Here is the method:
as §1, §2

For assay [4], the target named is T5, human Aβ3-40 peptide. The description is as above. Here is the method: as §1, §2
A further assay has as its target T6, human Aβ1-40 peptide (human).
T6 construct: Synthetic peptide
Described as above. Here is the method:
as §1, §2

Assay [5] concerns the target T4, human Aβ3pE-40 peptide. Briefly: SPR (Biacore T200), single cycle kinetics, antibody captured by anti-mouse antibody, peptide 3.125-50 nM, 1:1 fit, mean of n = 6. Here is the method:
Immobilization of the anti-mouse antibody was performed via amine coupling on a CM5 sensor chip following the manufacturer's protocol. […] The surface was regenerated with 10 mM glycine HCl at pH 1.7 for at least 180 sec and additional 60 sec. Human Aβ (1-40) peptide was used as a negative control.
Affinity measurements were performed using an optical biosensor T200 (Biacore®). Kinetic analysis was performed according to 1:1 binding fitting model with Biacore T200 Evaluation Software (version 2.0).
A general note: Surface plasmon resonance follows binding to a sensor surface in real time, without labels.

T2 sequence (peptide, as listed by the source): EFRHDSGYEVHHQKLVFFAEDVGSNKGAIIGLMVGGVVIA

B1: Aβ/pE3/1 (antibody, mouse IgG2a, kappa, V domains shown)
VH: QVQLQQPGAELVRPGASVKLSCKTSGYTFTRYWINWVKQRPGQGLEWIGNIRPSDSYTNYNQKFKDKATLTVDKSSSTAYMQLNRPTSEDSAVYYCTREGAYSDYETYWGQGTLVTVSA
VL: not shown
notes: Murine monoclonal; also called Clone 1; antibody from clone 1
With B1, the binding result is “no binding (tested: up to 10 ng/mL)” in the assay with rodent Aβ3pE-40, “binds” with human Aβ3-42 peptide, “no binding (tested: up to 10 ng/mL)” in the assay with human Aβ1-42 peptide and “no binding (tested: 10000 pg/ml (LOG 4))” with human Aβ1-40 peptide. Further, the values for the EC50 in the assay with human Aβ3pE-40 peptide [1] and in the assay with human Aβ3-40 peptide [2] were 0.026 nM and 0.355 nM, respectively. Also, the “EC50 (read off the curve)” value is ~0.1 ng/mL with human Aβ3pE-40 peptide [3] and ~1 ng/mL with human Aβ3-40 peptide [4]. In addition, in the assay with human Aβ3pE-40 peptide [5], the Kd worked out at 0.853 nM.
